First the molecules themselves.
B1: anti-GGX monoclonal antibody 2E9 (rabbit IgG) (antibody, V domains shown)
VH: QKQLMESGGRLVTPGTPLTLTCKVSGFSLSSYYMNWVRQAPGKGLEWIGIMFPNGKIYYATWAKGRFTISKTSTTVDLKIISPTTEDTATYFCTGDDSGDVNIWGPGTLVTVSS
VL: DIVLTQTASPVSAAVGGTVTINCQSSQSVYTNNRLAWYQQKPGQPAKEMIYGASTLPSGVSSRFKGSGSGTQFALTISDVQCDDAATYYCLGEFDCTSADCFVFGGGTEVVVKG
B2: anti-GGX monoclonal antibody 2H2 (rabbit IgG) (antibody, V domains shown)
VH: QSVEESRGRLVTPGTPLTLTCKVSGFSLSSYYMNWVRQAPGKGLEWIGIMFPNGKIYYATWAKGRFTISKTSTTVDLKIISPTTEDTATYFCTGDDSGDVNIWGPGTLVTVSS
VL: B1 VL with I2P, V3M, T31S, A46P, A74T, E93T, F94Y, T97L, F102L, V103A
B3: anti-GGX monoclonal antibody 2B12 (rabbit IgG) (antibody, V domains shown)
VH: QSVEESGGGLVTPGGALTLTCTASGFSLNRHWMNWVRQAPGKGLEWIGAINESGRTYYATWAKGRFFISKTTTTVDLKITSPTTADTATYFCVRDDDVSNFWGPGTLVTVSS
VL: DPMLTQTPSSVSAAVGGTVSINCQSTKSVYKYNHLSWYQQKPGQPPKQLIFPASTLQSGVPSRFSGSGSGTQFTLTISDVQCDDAATYYCLGLYDCRSGDCNVFGGGTKLEIKG

Where a chain is given by its changes, count along the chain named.

The target in the experiment is internal GGX peptides (genome-encoded GGX sequences exposed by trypsin digestion of HEK293 lysate). Put plainly: immunoaffinity enrichment from trypsin-digested HEK293 lysate, LC-MS/MS; count of internal GGX sequences enriched.
B1 yielded a Shared sequences of 14 sequences and a Unique sequences of 41 sequences.

In turn, B2 yielded a Shared sequences of 20 sequences and a Unique sequences of 47 sequences.

The molecule B3 gave a Shared sequences of 8 sequences and a Unique sequences of 8 sequences.
